Article PMC4351158 (Structure (London, England : 1993), 2015)
Changes are numbered by the printed parent chain. Where no end group is shown, it is not given here. fluorescein = fluorescein, a fluorescent label on the peptide N-terminus

Experiments:
Test in all cases: fluorescence polarisation
[1] = target: T1, DegS H198P/E230A (E. coli, UniProt P0AEE3 27-355, H198P | E230A)
T1 sequence (looked up): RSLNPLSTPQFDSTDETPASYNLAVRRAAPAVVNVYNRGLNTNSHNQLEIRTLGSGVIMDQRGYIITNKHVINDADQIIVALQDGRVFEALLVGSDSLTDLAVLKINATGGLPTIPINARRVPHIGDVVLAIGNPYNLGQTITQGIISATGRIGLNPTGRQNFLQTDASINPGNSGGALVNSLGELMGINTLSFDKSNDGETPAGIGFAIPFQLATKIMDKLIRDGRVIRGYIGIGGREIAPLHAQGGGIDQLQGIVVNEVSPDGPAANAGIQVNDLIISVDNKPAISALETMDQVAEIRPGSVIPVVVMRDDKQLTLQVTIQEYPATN

[2] = target: T2, DegS I232A (E. coli, UniProt P0AEE3 27-355, I232A)
T2 sequence (looked up): T1 sequence (looked up) with P172H, A204E, I206A

[3] = target: T3, DegS R178A (E. coli, UniProt P0AEE3 27-355, R178A)
T3 sequence (looked up): T1 sequence (looked up) with R152A, P172H, A204E

[4] = target: T4, DegS I179A/H198P (E. coli, UniProt P0AEE3 27-355, I179A | H198P)
T4 sequence (looked up): T1 sequence (looked up) with I153A, A204E

[5] = target: T5, DegS E230A (E. coli, UniProt P0AEE3 27-355, E230A)
T5 sequence (looked up): T1 sequence (looked up) with P172H

[6] = target: T6, DegS H198P/F234A (E. coli, UniProt P0AEE3 27-355, H198P | F234A)
T6 sequence (looked up): T1 sequence (looked up) with A204E, F208A

Kd [1]: 1800 ± 400 nM
Kd [2]: 2200 ± 300 nM
Kd [3]: 3600 ± 200 nM
Kd [4]: 1600 ± 100 nM
Kd [5]: 5700 ± 1300 nM
Kd [6]: 2900 ± 100 nM
Binder: fluorescein-DNRDGNVYYF [fluorescent OMP peptide fluorescein-DNRDGNVYYF]
